In patent US20070203071A1:

Experiments:
hP1R (human) = hP1R (human) (UniProt Q03431); assay: competition binding, 125I-PTH(1-15) tracer, HKRK-B7 cells
- = assay: competition binding, 125I-PTH(1-15) tracer, HKRK-B28 cells
[1] = biological target: wild-type human P1R (human) (UniProt Q03431); assay: competition binding, 125I-PTH(1-15) tracer, HKRK-B7 cells
Sequence of wild-type human P1R (human) (Q03431 27-593): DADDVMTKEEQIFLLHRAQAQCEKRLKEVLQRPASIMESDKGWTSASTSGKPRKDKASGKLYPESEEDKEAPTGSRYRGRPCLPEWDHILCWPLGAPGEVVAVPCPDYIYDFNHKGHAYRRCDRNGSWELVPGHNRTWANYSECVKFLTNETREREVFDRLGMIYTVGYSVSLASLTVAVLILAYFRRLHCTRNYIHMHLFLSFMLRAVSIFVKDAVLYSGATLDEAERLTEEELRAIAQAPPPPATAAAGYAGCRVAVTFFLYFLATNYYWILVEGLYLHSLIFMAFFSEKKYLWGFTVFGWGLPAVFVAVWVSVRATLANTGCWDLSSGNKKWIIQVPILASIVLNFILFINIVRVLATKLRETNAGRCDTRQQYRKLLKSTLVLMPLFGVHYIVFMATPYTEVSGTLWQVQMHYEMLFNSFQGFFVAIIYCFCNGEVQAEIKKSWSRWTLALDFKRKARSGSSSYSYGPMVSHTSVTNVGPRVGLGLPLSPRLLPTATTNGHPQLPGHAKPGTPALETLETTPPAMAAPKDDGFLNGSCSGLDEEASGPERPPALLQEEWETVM

Sequence of hP1R (human) (Q03431 27-593): as above
Sequence of [Ile^5, Trp^23, Tyr^36]PTHrP(5-36)NH2 (P12272 41-72): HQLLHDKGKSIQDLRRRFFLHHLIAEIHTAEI

Row | IC50 (-) [nM] | Substance | further results
1 |  | PTH(1-34) | IC50 (hP1R (human)): 2 nM
2 | 18 | [Aib1,3,M]PTH(1-21) | 
3 | 750 | [Aib3,M]PTH(3-21) | 
4 |  | [Ile^5, Trp^23, Tyr^36]PTHrP(5-36)NH2 (from UniProt P12272 41-72) | IC50 [1]: 50 nM
5 | 4.8 | rPTH(1-34) | 
